Assay results as given in publication doi:10.1101/2024.07.02.601760, “Multi-dimensional demarcation of phylogenetic groups of plant 14-3-3 isoforms using biochemical signatures” (bioRxiv, 2024).
Substitutions are numbered along the chain they refer to. Names may count otherwise.

B1: Arabidopsis thaliana 14-3-3 chi (natural protein, UniProt P42643 1-267, looked up)
chain: MATPGASSARDEFVYMAKLAEQAERYEEMVEFMEKVAKAVDKDELTVEERNLLSVAYKNVIGARRASWRIISSIEQKEESRGNDDHVSLIRDYRSKIETELSDICDGILKLLDTILVPAAASGDSKVFYLKMKGDYHRYLAEFKSGQERKDAAEHTLTAYKAAQDIANSELAPTHPIRLGLALNFSVFYYEILNSPDRACNLAKQAFDEAIAELDTLGEESYKDSTLIMQLLRDNLTLWTSDMQDDVADDIKEAAPAAAKPADEQQS
notes: 14-3-3 chi, Arabidopsis thaliana, non-epsilon group; source: E. coli BL21(DE3), purified (IMAC, thrombin cleavage of the His6-tag, subtractive IMAC, preparative SEC; aliquots before preparative SEC for SEC-MALS)
B2: Arabidopsis thaliana 14-3-3 lambda (natural protein, UniProt P48349 1-248, looked up)
chain: MAATLGRDQYVYMAKLAEQAERYEEMVQFMEQLVTGATPAEELTVEERNLLSVAYKNVIGSLRAAWRIVSSIEQKEESRKNDEHVSLVKDYRSKVESELSSVCSGILKLLDSHLIPSAGASESKVFYLKMKGDYHRYMAEFKSGDERKTAAEDTMLAYKAAQDIAAADMAPTHPIRLGLALNFSVFYYEILNSSDKACNMAKQAFEEAIAELDTLGEESYKDSTLIMQLLRDNLTLWTSDMQEQMDEA
notes: 14-3-3 lambda, Arabidopsis thaliana, non-epsilon group; construct provided by Prof; Robert J. Ferl; source: E. coli C41(DE3), purified (IMAC, thrombin cleavage of the His6-tag, subtractive IMAC, preparative SEC; aliquots before preparative SEC for SEC-MALS)
B3: Arabidopsis thaliana 14-3-3 mu (natural protein, UniProt Q96299 1-263, looked up)
chain: MGSGKERDTFVYLAKLSEQAERYEEMVESMKSVAKLNVDLTVEERNLLSVGYKNVIGSRRASWRIFSSIEQKEAVKGNDVNVKRIKEYMEKVELELSNICIDIMSVLDEHLIPSASEGESTVFFNKMKGDYYRYLAEFKSGNERKEAADQSLKAYEIATTAAEAKLPPTHPIRLGLALNFSVFYYEIMNAPERACHLAKQAFDEAISELDTLNEESYKDSTLIMQLLRDNLTLWTSDISEEGGDDAHKTNGSAKPGAGGDDAE
notes: 14-3-3 mu, Arabidopsis thaliana, epsilon group; pET28a construct obtained by gene synthesis; source: E. coli BL21(DE3), purified (IMAC, thrombin cleavage of the His6-tag, subtractive IMAC, preparative SEC; aliquots before preparative SEC for SEC-MALS)
B4: Arabidopsis thaliana 14-3-3 upsilon (natural protein, UniProt P42645 1-268, looked up)
chain: MSSDSSREENVYLAKLAEQAERYEEMVEFMEKVAKTVETEELTVEERNLLSVAYKNVIGARRASWRIISSIEQKEDSRGNSDHVSIIKDYRGKIETELSKICDGILNLLEAHLIPAASLAESKVFYLKMKGDYHRYLAEFKTGAERKEAAESTLVAYKSAQDIALADLAPTHPIRLGLALNFSVFYYEILNSSDRACSLAKQAFDEAISELDTLGEESYKDSTLIMQLLRDNLTLWTSDLNDEAGDDIKEAPKEVQKVDEQAQPPPSQ
notes: 14-3-3 upsilon, Arabidopsis thaliana (Col-0), non-epsilon group; source: E. coli BL21(DE3), purified (IMAC, thrombin cleavage of the His6-tag, subtractive IMAC, preparative SEC; aliquots before preparative SEC for SEC-MALS)
B5: Arabidopsis thaliana 14-3-3 epsilon (natural protein, UniProt P48347 1-254, looked up)
chain: MENEREKQVYLAKLSEQTERYDEMVEAMKKVAQLDVELTVEERNLVSVGYKNVIGARRASWRILSSIEQKEESKGNDENVKRLKNYRKRVEDELAKVCNDILSVIDKHLIPSSNAVESTVFFYKMKGDYYRYLAEFSSGAERKEAADQSLEAYKAAVAAAENGLAPTHPVRLGLALNFSVFYYEILNSPESACQLAKQAFDDAIAELDSLNEESYKDSTLIMQLLRDNLTLWTSDLNEEGDERTKGADEPQDEN
notes: 14-3-3 epsilon, Arabidopsis thaliana, epsilon group; pET28a construct obtained by gene synthesis; source: E. coli BL21(DE3), purified (IMAC, thrombin cleavage of the His6-tag, subtractive IMAC, preparative SEC; aliquots before preparative SEC for SEC-MALS)
B6: Arabidopsis thaliana 14-3-3 psi (natural protein, UniProt P42644 1-255, looked up)
chain: MSTREENVYMAKLAEQAERYEEMVEFMEKVAKTVDVEELSVEERNLLSVAYKNVIGARRASWRIISSIEQKEESKGNEDHVAIIKDYRGKIESELSKICDGILNVLEAHLIPSASPAESKVFYLKMKGDYHRYLAEFKAGAERKEAAESTLVAYKSASDIATAELAPTHPIRLGLALNFSVFYYEILNSPDRACSLAKQAFDDAIAELDTLGEESYKDSTLIMQLLRDNLTLWTSDMTDEAGDEIKEASKPDGAE
notes: 14-3-3 psi, Arabidopsis thaliana, non-epsilon group; construct provided by Prof; Robert J. Ferl; source: E. coli C41(DE3), purified (IMAC, thrombin cleavage of the His6-tag, subtractive IMAC, preparative SEC; aliquots before preparative SEC for SEC-MALS)
B7: Arabidopsis thaliana 14-3-3 nu (natural protein, UniProt Q96300 1-265, looked up)
chain: MSSSREENVYLAKLAEQAERYEEMVEFMEKVAKTVDTDELTVEERNLLSVAYKNVIGARRASWRIISSIEQKEESRGNDDHVSIIKDYRGKIETELSKICDGILNLLDSHLVPTASLAESKVFYLKMKGDYHRYLAEFKTGAERKEAAESTLVAYKSAQDIALADLAPTHPIRLGLALNFSVFYYEILNSPDRACSLAKQAFDEAISELDTLGEESYKDSTLIMQLLRDNLTLWNSDINDEAGGDEIKEASKHEPEEGKPAETGQ
notes: 14-3-3 nu, Arabidopsis thaliana (Col-0), non-epsilon group; source: E. coli BL21(DE3), purified (IMAC, thrombin cleavage of the His6-tag, subtractive IMAC, preparative SEC; aliquots before preparative SEC for SEC-MALS)
B8: Arabidopsis thaliana 14-3-3 iota T32F (natural protein, UniProt Q9C5W6 1-268, looked up)
chain: MSSSGSDKERETFVYMAKLSEQAERYDEMVEFMKKVARVNSELTVEERNLLSVGYKNVIGARRASWRIMSSIEQKEESKGNESNVKQIKGYRQKVEDELANICQDILTIIDQHLIPHATSGEATVFYYKMKGDYYRYLAEFKTEQERKEAAEQSLKGYEAATQAASTELPSTHPIRLGLALNFSVFYYEIMNSPERACHLAKQAFDEAIAELDTLSEESYKDSTLIMQLLRDNLTLWTSDLPEDGGEDNIKTEESKQEQAKPADATEN
notes: 14-3-3 iota, Arabidopsis thaliana, single mutant T32F made by megaprimer PCR on pET28a-14-3-3 iota; Same limits as m9; also called M1; source: E. coli BL21(DE3), purified (IMAC, thrombin cleavage of the His6-tag, subtractive IMAC, preparative SEC)
B9: Arabidopsis thaliana 14-3-3 iota G54A (natural protein, UniProt Q9C5W6 1-268, looked up)
chain: B8 chain with F32T, G54A
notes: 14-3-3 iota, Arabidopsis thaliana, single mutant G54A made by megaprimer PCR on pET28a-14-3-3 iota; Same limits as m9; also called M3; source: E. coli BL21(DE3), purified (IMAC, thrombin cleavage of the His6-tag, subtractive IMAC, preparative SEC)
B10: Arabidopsis thaliana 14-3-3 iota N84H (natural protein, UniProt Q9C5W6 1-268, looked up)
chain: B8 chain with F32T, N84H
notes: 14-3-3 iota, Arabidopsis thaliana, single mutant N84H made by megaprimer PCR on pET28a-14-3-3 iota; Same limits as m9; also called M2; source: E. coli BL21(DE3), purified (IMAC, thrombin cleavage of the His6-tag, subtractive IMAC, preparative SEC)
B11: Arabidopsis thaliana 14-3-3 iota (natural protein, UniProt Q9C5W6 1-268, looked up)
chain: B8 chain with F32T
notes: 14-3-3 iota, Arabidopsis thaliana, epsilon group; pET28a construct obtained by gene synthesis; also called iota WT; source: E. coli BL21(DE3), purified (IMAC, thrombin cleavage of the His6-tag, subtractive IMAC, preparative SEC; aliquots before preparative SEC for SEC-MALS)
B12: Arabidopsis thaliana 14-3-3 phi (natural protein, UniProt P46077 1-267, looked up)
chain: MAAPPASSSAREEFVYLAKLAEQAERYEEMVEFMEKVAEAVDKDELTVEERNLLSVAYKNVIGARRASWRIISSIEQKEESRGNDDHVTTIRDYRSKIESELSKICDGILKLLDTRLVPASANGDSKVFYLKMKGDYHRYLAEFKTGQERKDAAEHTLTAYKAAQDIANAELAPTHPIRLGLALNFSVFYYEILNSPDRACNLAKQAFDEAIAELDTLGEESYKDSTLIMQLLRDNLTLWTSDMQDESPEEIKEAAAPKPAEEQKEI
notes: 14-3-3 phi, Arabidopsis thaliana, non-epsilon group; construct provided by Prof; Robert J. Ferl; source: E. coli C41(DE3), purified (IMAC, thrombin cleavage of the His6-tag, subtractive IMAC, preparative SEC; aliquots before preparative SEC for SEC-MALS)
B13: Arabidopsis thaliana 14-3-3 omega (natural protein)
chain: MASGREEFVYMAKLAEQAERYEEMVEFMEKVSAAVDGDELTVEERNLLSVAYKNVIGARRASWRIISSIEQKEESRGNDDHVTAIREYRSKIETELSGICDGILKLLDSRLIPAAASGDSKVFYLKMKGDYHRYLAEFKTGQERKDAAEHTLAAYKSAQDIANAELAPTHPIRLGLALNFSVFYYEILNSPDRACNLAKQAFDEAIAELDTLGEESYKDSTLIMQLLRDNLTLWTSD
notes: 14-3-3 omega, Arabidopsis thaliana, non-epsilion group; pET28a construct obtained by gene synthesis; source: E. coli BL21(DE3), purified (IMAC, thrombin cleavage of the His6-tag, subtractive IMAC, preparative SEC; aliquots before preparative SEC for SEC-MALS)

How the values were obtained:
[1] = target: the molecule itself; experiment: SEC-MALS; Superdex 200 Increase 10/300, 0.8 ml/min; 65 µl of ~3 mg/ml or 100 μM per monomer loaded; 20 mM Tris-HCl pH 7.5, 150 mM NaCl, 5 mM βME, 3 mM NaN3; samples before preparative SEC; self-association, monomers to dimer (small tetramer peak for six isoforms)
[2] = target: the molecule itself; experiment: native gel or EMSA; native PAGE, Tris-glycine pH 8.6, 15% or 15-25% gradient acrylamide, 2 h at room temperature, samples 0.33 mg/ml in SEC buffer; self-association, dimer to monomers

Protein	stoichiometry N [1]	binding result [2]
B1	2	
B2	2	
B3	2	
B4	2	
B5	2	
B6	2	
B7	2	
B8		binds
B9		binds
B10		binds
B11	2	
B12	2	
B13	2	
